One experiment addresses CM16 (influenza A virus). Briefly: ELISA, peptide coated, antibody 10 µg/ml.
A further experiment has as its target NM14 (influenza A virus). The experiment is described as follows: ELISA, peptide coated, antibody 10 µg/ml.
A further experiment has as its target NM12 (influenza A virus). The experiment is described as follows: ELISA, peptide coated, antibody 10 µg/ml.
In the next experiment the target is CM13 (influenza A virus). The experiment is described as follows: ELISA, peptide coated, antibody 10 µg/ml.
Another experiment deals with CM14 (influenza A virus). The experiment is described as follows: ELISA, peptide coated, antibody 10 µg/ml.
The target of a further experiment is CM17 (influenza A virus). The experiment is described as follows: ELISA, peptide coated, antibody 10 µg/ml.
The target in another experiment is CM12 (influenza A virus). Briefly: ELISA, peptide coated, antibody 10 µg/ml.
The next experiment has as its target M12 (influenza A virus). The experiment is described as follows: ELISA, peptide coated, antibody 10 µg/ml.
In the next experiment the target is CM15 (influenza A virus). The experiment is described as follows: ELISA, peptide coated, antibody 10 µg/ml.
A further experiment concerns the target NM13 (influenza A virus). The experiment is described as follows: ELISA, peptide coated, antibody 10 µg/ml.
Experiment [1] deals with M2 expressed on A/HK/8/68 infected MDCK cells (influenza A virus A/HK/8/68). Briefly: cell-based ELISA, infected MDCK cells.
The target of a further experiment is NM16 (influenza A virus). Briefly: ELISA, peptide coated, antibody 10 µg/ml.
A further experiment addresses NM11 (influenza A virus). Briefly: ELISA, peptide coated, antibody 10 µg/ml.
Experiment [2] deals with M2 peptide (extracellular 23-amino-acid M2 peptide) (influenza A virus). Briefly: ELISA, peptide coated, antibody 10 µg/ml.
A further experiment concerns the target NM17 (influenza A virus). Briefly: ELISA, peptide coated, antibody 10 µg/ml.

B1: C40G1 (antibody, V domains shown)
VH: QLQLQESGPGLVKPSETLSLTCTVSGGSISSSFYYCGWIRQPPGKGLEWIGSIYYRGSTYYNPSLKSRVTISVDTSKNQFSLKLSSVTAADTAVYYCARRVTMVRGVKGDYFDYWGQGTLVTVSS
VL: DIQMTQSPSSLSASVGDRVTITCRASQGISSWLAWYQQKPEKVPKSLIYAASSLQSGVPSRFSGSGSGTDFTLTISSLQPEDFATYYCQQYNYYPLTFGGGTKVEIKR
As to B1, the ELISA (OD450) in the experiment with CM16 (influenza A virus) was 0.76 OD450; with NM14 (influenza A virus), 2.49 OD450; in the experiment with NM12 (influenza A virus), 0.12 OD450; in the experiment with CM13 (influenza A virus), 0.11 OD450; with CM14 (influenza A virus), 0.1 OD450; with CM17 (influenza A virus), 2.78 OD450. The ELISA (OD450) with CM12 (influenza A virus) was determined as 0.1 OD450; in the experiment with M12 (influenza A virus), 2.71 OD450; with CM15 (influenza A virus) it was 0.11 OD450; with NM13 (influenza A virus), 2.41 OD450.

B2: L66 (antibody, V domains shown)
VH: EVQLVESGGGVVRPGGSLRLSCAASGFTFDDYGMSWVRQAPGKGLEWVSGINWNGGSTGYADSVKGRFTISRDNAKNSLYLQMNSLRAEDTALYYCARDRVTMVRGVIMDYYGMDVWGQGTTVTVSS
VL: QTVVTQEPSLTVSPRGTVTLTCSSSTGAVTSGYYPGWFQLKPGQAPMSLIYSARKKHSWTPARFSGSLLGGKAALTLSGVQPEDEAEYYCLLYYGGAYVFGTGTKVTVLG
B2: the EC50 in experiment [1] amounted to 0.229 µg/mL. Also, the ELISA (OD450) was found to be 0.09 OD450 in the experiment with CM16 (influenza A virus); 1.04 OD450 with NM16 (influenza A virus); 0.09 OD450 in the experiment with NM11 (influenza A virus); 0.12 OD450 with NM12 (influenza A virus); 0.51 OD450 in [2]; 0.08 OD450 with CM13 (influenza A virus). Also, the ELISA (OD450) was 0.08 OD450 with CM14 (influenza A virus); 0.99 OD450 with NM17 (influenza A virus); 0.12 OD450 with CM17 (influenza A virus); 0.08 OD450 with CM12 (influenza A virus); 0.09 OD450 in the experiment with CM15 (influenza A virus); 0.13 OD450 with NM13 (influenza A virus).

For the origin of these results see patent US20050170334A1.
